Consider three molecules from PMC4717663 (Nature structural & molecular biology, 2014).

No end group written: not given here. *: point of attachment. FITC = O=C1OC2(c3ccc(O)cc3Oc3cc(O)ccc32)c2ccc(NC(=S)*)cc21; Ahx = NCCCCCC(=O)O

Sequences and labels used below:
B1: soluble αVβ6 headpiece (complex)
chain 1: FNLDVDSPAEYSGPEGSYFGFAVDFFVPSASSRMFLLVGAPKANTTQPGIVEGGQVLKCDWSSTRRCQPIEFDATGNRDYAKDDPLEFKSHQWFGASVRSKQDKILACAPLYHWRTEMKQEREPVGTCFLQDGTKTVEYAPCRSQDIDADGQGFCQGGFSIDFTKADRVLLGGPGSFYWQGQLISDQVAEIVSKYDPNVYSIKYNNQLATRTAQAIFDDSYLGYSVAVGDFNGDGIDDFVSGVPRAARTLGMVYIYDGKNMSSLYNFTGEQMAAYFGFSVAATDINGDDYADVFIGAPLFMDRGSDGKLQEVGQVSVSLQRASGDFQTTKLNGFEVFARFGSAIAPLGDLDQDGFNDIAIAAPYGGEDKKGIVYIFNGRSTGLNAVPSQILEGQWAARSCPPSFGYSMKGATDIDKNGYPDLIVGAFGVDRAILYRARPVITVNAGLEVYPSILNQDNKTCSLPGTALKVSCFNVRFCLKADGKGVLPRKLNFQVELLLDKLKQKGAIRRALFLYSRSPSHSKNMTISRGGLMQCEELIAYLRDESEFRDKLTPITIFMEYRLDYRTAADTTGLQPILNQFTPANISRQAHILLDTGGLEVLFQ
chain 2: HVQGGCALGGAETCEDCLLIGPQCAWCAQENFTHPSGVGERCDTPANLLAKGCQLNFIENPVSQVEILKNKPLSVGRQKNSSDIVQIAPQSLILKLRPGGAQTLQVHVRQTEDYPVDLYYLMDLSASMDDDLNTIKELGSRLSKEMSKLTSNFRLGFGSFVEKPVSPFVKTTPEEIANPCSSIPYFCLPTFGFKHILPLTNDAERFNEIVKNQKISANIDTPEGGFDAIMQAAVCKEKIGWRNDSLHLLVFVSDADSHFGMDSKLAGIVCPNDGLCHLDSKNEYSMSTVLEYPTIGQLIDKLVQNNVLLIFAVTQEQVHLYENYAKLIPGATVGLLQKDSGNILQLIISAYEELRSEVELEVLGDTEGLNLSFTAICNNGTLFQHQKKCSHMKVGDTASFSVTVNIPHCERRSRHIIIKPVGLGDALELLVSPECNCDCQKEVEVNSSKCHHGNGSFQCGVCACHPGHMGPRCESRGLQTLFQ

Holding throughout (assay): fluorescence polarisation
Test [1] has as its target nonapeptide containing RGD from pro-TGF-β3.
The test “soluble αVβ6 headpiece” deals with B1.
In the next test the target is soluble αVβ3 headpiece (human, UniProt P06756 31-624; P05106 27-498, M400C | Q267C).
soluble αVβ3 headpiece, sequence (P05106 27-498 Q293C, one chain of several): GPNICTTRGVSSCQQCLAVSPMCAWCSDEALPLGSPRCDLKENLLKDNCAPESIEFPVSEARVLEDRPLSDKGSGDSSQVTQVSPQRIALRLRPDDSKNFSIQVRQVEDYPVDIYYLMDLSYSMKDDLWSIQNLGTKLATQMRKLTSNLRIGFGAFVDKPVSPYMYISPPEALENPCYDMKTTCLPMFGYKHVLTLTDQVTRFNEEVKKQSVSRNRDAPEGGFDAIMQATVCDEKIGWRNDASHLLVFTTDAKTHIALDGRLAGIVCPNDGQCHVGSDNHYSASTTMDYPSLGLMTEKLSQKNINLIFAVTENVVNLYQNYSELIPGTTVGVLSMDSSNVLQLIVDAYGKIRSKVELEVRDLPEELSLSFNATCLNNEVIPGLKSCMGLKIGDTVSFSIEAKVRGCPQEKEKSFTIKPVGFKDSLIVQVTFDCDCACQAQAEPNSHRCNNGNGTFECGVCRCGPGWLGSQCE

Regarding B1, the Kd in test [1] is 0.0085 µM.

In the test with soluble αVβ6 headpiece, YTSGDQKTI [homologous peptide from pro-TGF-β2 (SGD in place of RGD)] showed a dissociation constant (Kd) of 8.5 µM.

As to {FITC-Ahx}-GRGDLGRL [FITC–pro-TGF-β3 peptide (FITC-aminohexanoic-GRGDLGRL)], the binding result with soluble αVβ3 headpiece is on record as “binds”.
